Experimental findings from the supplement of paper PMC10724198 are described below.

± gives the standard deviation of the averaged measurements.
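Further: PSI is a weighted mean of sequencing reads over stability bins, variants kept only with over 10 reads, mCherry proximal and sfGFP distal, peptide attached via GGGS linker.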

For this series, the system named is Saccharomyces cerevisiae. The series is described as follows: protein stability index of tFT-peptide fusion (C-terminal peptide) (PSI (0-1 scale)); higher = more stable (slower turnover). The conditions noted are these: genetic background: wild type; temperature: 30 C.
Sequence SPPPLPSPSPPP showed a protein stability index of 0.687 ± 0.044.

SPPPPLHPALPA: the protein stability index came out at 0.656 ± 0.083.

For SPPPPPPAPPPP, the protein stability index is 0.664 ± 0.042.

SPPPPPPPLPPA registered a protein stability index of 0.731 ± 0.037.

Consider SPPPRHLLSPRH, for which the protein stability index worked out at 0.697 ± 0.0077.

SPPPSSPPAPPR had a protein stability index of 0.717 ± 0.11.

In the case of SPPRLPTPPPLR, the protein stability index amounted to 0.705 ± 0.022.

Consider SPPRPPAPPSPT, for which the protein stability index was determined as 0.701 ± 0.014.

The sequence SPPRPPCLPLTP returned a protein stability index of 0.713 ± 0.048.

Take SPPSPLALSLRF: the protein stability index worked out at 0.707 ± 0.025.

In turn, SPPSPLYFCSRF showed a protein stability index of 0.661 ± 0.015.

The sequence SPPSPPALTPSP registered a protein stability index of 0.643 ± 0.048.

SPRLDPLFRSPP registered a protein stability index of 0.712 ± 0.017.

Take SPRNIVFQPLSP: the protein stability index was determined as 0.622 ± 0.069.

Regarding SPRRPPQHPTLL, the protein stability index came out at 0.65 ± 0.016.

SPRTVCPELHFI yielded a protein stability index of 0.691 ± 0.044.

SPRVLSLLLRSM returned a protein stability index of 0.5811 ± 0.0036.

Sequence SPRWAPPLPAWP had a protein stability index of 0.712 ± 0.014.

SPSLSFPGIPLF showed a protein stability index of 0.673 ± 0.052.

Take SPSPALPPRIRF: the protein stability index was 0.818 ± 0.15.

On to SPSPHSPHPTPH, for which the protein stability index is 0.738 ± 0.085.

Regarding SPSPPPRRYLPL, the protein stability index worked out at 0.757 ± 0.073.

In the case of SPSPQPLRRAHP, the protein stability index stood at 0.698 ± 0.043.

SPSPSPPPAISI: the protein stability index is 0.657 ± 0.015.

Turning to SPSSRTTNTHPA, the protein stability index was determined as 0.694 ± 0.11.

SPTAHAPALPSP displayed a protein stability index of 0.692 ± 0.049.

Take SPTPPTAPPSPL: the protein stability index was 0.699 ± 0.015.

SPTRNLPPFPPP: the protein stability index worked out at 0.723 ± 0.054.

In the case of SPVPPSPAPLLI, the protein stability index was determined as 0.673 ± 0.018.

Consider SPVPRIRPPPLL, for which the protein stability index amounted to 0.699 ± 0.053.

SPVSPTSNSPAC showed a protein stability index of 0.649 ± 0.085.

Take SQCNRGSWRSPS: the protein stability index amounted to 0.645 ± 0.0073.

Consider SQMCHREESVTV, for which the protein stability index is 0.712 ± 0.004.

The sequence SQPRRELGRPRG yielded a protein stability index of 0.662 ± 0.022.

SQSEGTLELINK displayed a protein stability index of 0.679 ± 0.043.

SQTKRINSEKNN yielded a protein stability index of 0.654 ± 0.039.

SRALNAPAPFLP registered a protein stability index of 0.747 ± 0.044.

For SRELPPPLLRSS, the protein stability index is 0.692 ± 0.072.

In turn, SRFAGVGGGGAR displayed a protein stability index of 0.667 ± 0.0071.

SRFISTLPGLLA displayed a protein stability index of 0.708 ± 0.035.

For the sequence SRFRSGVAALPS, the protein stability index is 0.644 ± 0.033.

Sequence SRFWLCGKCLWH registered a protein stability index of 0.7051 ± 0.0045.

SRGIRPYYRLLL returned a protein stability index of 0.596 ± 0.0094.

SRGSMLRRPLFV showed a protein stability index of 0.571.

For SRGTTLDREQQR, the protein stability index worked out at 0.687 ± 0.1.

In the case of SRHLALPPPRSF, the protein stability index was 0.702 ± 0.045.

Turning to SRIFLFPTPTLF, the protein stability index stood at 0.651 ± 0.096.

In turn, SRISQSMRFPIK yielded a protein stability index of 0.691 ± 0.027.

Regarding SRKLRKSLFKKS, the protein stability index came to 0.689 ± 0.045.

On to SRLFEFFISRNV, for which the protein stability index was found to be 0.706 ± 0.013.

SRLFSFLYDVTA displayed a protein stability index of 0.665 ± 0.036.

In turn, SRLPGLELCNRI returned a protein stability index of 0.675 ± 0.041.

In turn, SRLPIVGYLTLL yielded a protein stability index of 0.56 ± 0.036.

Sequence SRPIPSPPPRPV came in with a protein stability index of 0.6473 ± 0.002.

Sequence SRPLSSPSPPPS registered a protein stability index of 0.723 ± 0.043.

On to SRPQTTGPLPPL, for which the protein stability index was determined as 0.684 ± 0.05.

For SRPTAPKRQTRY, the protein stability index is 0.6886 ± 0.0046.

Take SRRMFCACYVLS: the protein stability index came out at 0.585 ± 0.031.

Sequence SRRSKDRAGVWV showed a protein stability index of 0.642 ± 0.0079.

Consider SRRVAPEPSIPP, for which the protein stability index was 0.683 ± 0.018.

The sequence SRSGFWCYLLFL yielded a protein stability index of 0.553 ± 0.039.

SRSPPPPALPPL: the protein stability index is 0.702 ± 0.05.

On to SRSRCGSRAVAF, for which the protein stability index came out at 0.694 ± 0.029.

Take SRTLPPPSPGLH: the protein stability index is 0.714 ± 0.013.
